In the supplement of paper PMC7877785:
± gives the uncertainty stated by the source.

Test: self-splicing fitness, log relative to wild type (ln ratio); higher = more splicing; Tetrahymena group I intron in knt gene, E. coli kanamycin selection, DiMSum; sequences stand for … in CUCUCU…GGAGGGAAAAGUUAUCAGGCAUGCACCUGGUAGCUAGUCUUUAAACCAAUAGAUUGCAUCGGUUUAAAAGGCAAGACCGUCAAAUUGCGGGAAAGGGGUCAACAGCCGUUCAGUACCAAGUCUCAGGGGAAACUUUGAGAUGGCCUUGCAAAGGGUAUGGUAAUAAGCUGACGGACAUGGUCCUAACCACGCAGCCAAGUCCUAAGUCAACAGAUCUUCUGUUGAUAUGGAUGCAGUUCACAGACUAAAUGUCGGUCGGGGAAGAUGUAUUCUUCUCAUAAGAUAUAGUCGGACCUCUCCUUAAUGGGAGCUAGCGGAUGAAGUGAUGCAACACUGGAGCCGCUGGGAACUAAUUUGUAUGCGAAAGUAUAUUGAUUAGUUUUGGAGUACUCGUGGUCG
Method in brief: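 DiMSum derived fitness as the error-weighted combination of fold changes across replicates, kanamycin versus no kanamycin, normalised to wild type. E. coli BL21(DE3) held the library, which randomised all eight P1ex-region intron nucleotides within the knt kanamycin-resistance gene on pET-22b(+). Six replicate transformations grew overnight at 37°C or 30°C on LB agar with or without 25 μg/mL kanamycin, also containing 100 μg/mL carbenicillin, 50 μM IPTG and 0.2% rhamnose, and pooled colonies were amplicon-sequenced on an Illumina HiSeq 2500.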

GUUCAGCAAUAUUACGUGAG
self-splicing fitness (ln) (30 °C): -0.139 ± 0.044 | self-splicing fitness (ln) (37 °C): -0.408 ± 0.062

GUUCAGCAAUAUUACGUUAA
self-splicing fitness (ln) (30 °C): -1.02 ± 0.11 | self-splicing fitness (ln) (37 °C): -0.264 ± 0.12

GUUGAGCAAUAUUACGAAAC
self-splicing fitness (ln) (30 °C): -1.97 ± 0.37

GUUGAGCAAUAUUACGAAAU
self-splicing fitness (ln) (30 °C): -3.35 ± 0.44 | self-splicing fitness (ln) (37 °C): -0.897 ± 0.27

GUUGAGCAAUAUUACGAACA
self-splicing fitness (ln) (30 °C): -2.67 ± 0.4 | self-splicing fitness (ln) (37 °C): -1.69 ± 0.32

GUUGAGCAAUAUUACGAAUG
self-splicing fitness (ln) (37 °C): -1.68 ± 0.44

GUUGAGCAAUAUUACGAUAG
self-splicing fitness (ln) (37 °C): -3.04 ± 0.31

GUUGAGCAAUAUUACGAUCA
self-splicing fitness (ln) (30 °C): -2.74 ± 0.37 | self-splicing fitness (ln) (37 °C): 0.523 ± 0.28

GUUGAGCAAUAUUACGAUCU
self-splicing fitness (ln) (30 °C): -0.691 ± 0.093 | self-splicing fitness (ln) (37 °C): -1.12 ± 0.11

GUUGAGCAAUAUUACGCAGU
self-splicing fitness (ln) (37 °C): -1.25 ± 0.4

GUUGAGCAAUAUUACGCGGA
self-splicing fitness (ln) (37 °C): -0.744 ± 0.35

GUUGAGCAAUAUUACGCGUU
self-splicing fitness (ln) (30 °C): -4.25 ± 0.46 | self-splicing fitness (ln) (37 °C): -2.15 ± 0.28

GUUGAGCAAUAUUACGGAUU
self-splicing fitness (ln) (30 °C): -2.6 ± 0.34 | self-splicing fitness (ln) (37 °C): -1.56 ± 0.21

GUUGAGCAAUAUUACGGCAA
self-splicing fitness (ln) (30 °C): -1.78 ± 0.42 | self-splicing fitness (ln) (37 °C): -0.283 ± 0.48

GUUGAGCAAUAUUACGGGAA
self-splicing fitness (ln) (30 °C): -3.4 ± 0.23 | self-splicing fitness (ln) (37 °C): -2.39 ± 0.23

GUUGAGCAAUAUUACGUAAU
self-splicing fitness (ln) (30 °C): -1.76 ± 0.093 | self-splicing fitness (ln) (37 °C): -0.913 ± 0.12

GUUGAGCAAUAUUACGUAUA
self-splicing fitness (ln) (30 °C): -2.17 ± 0.29

GUUGAGCAAUAUUACGUCCA
self-splicing fitness (ln) (30 °C): -2.21 ± 0.34

GUUGAGCAAUAUUACGUCGG
self-splicing fitness (ln) (30 °C): -3.61 ± 0.39 | self-splicing fitness (ln) (37 °C): -1.61 ± 0.27

GUUGAGCAAUAUUACGUGAU
self-splicing fitness (ln) (30 °C): -2.14 ± 0.19 | self-splicing fitness (ln) (37 °C): -1.6 ± 0.27

GUUGAGCAAUAUUACGUGUA
self-splicing fitness (ln) (30 °C): -3 ± 0.21

GUUGAGCAAUAUUACGUUCU
self-splicing fitness (ln) (30 °C): -1.82 ± 0.14 | self-splicing fitness (ln) (37 °C): -1.2 ± 0.13

GUUGAGCAAUAUUACGUUUC
self-splicing fitness (ln) (30 °C): -2.09 ± 0.2 | self-splicing fitness (ln) (37 °C): -3.1 ± 0.34

GUUUAGCAAUAUUACGAGAC
self-splicing fitness (ln) (30 °C): -3.35 ± 0.49 | self-splicing fitness (ln) (37 °C): -2.08 ± 0.32

GUUUAGCAAUAUUACGAGCC
self-splicing fitness (ln) (30 °C): -3.21 ± 0.21 | self-splicing fitness (ln) (37 °C): -1.56 ± 0.2

GUUUAGCAAUAUUACGAGGG
self-splicing fitness (ln) (30 °C): -3.76 ± 0.36 | self-splicing fitness (ln) (37 °C): -2.73 ± 0.34

GUUUAGCAAUAUUACGAUAU
self-splicing fitness (ln) (30 °C): -1.18 ± 0.14 | self-splicing fitness (ln) (37 °C): -0.528 ± 0.16

GUUUAGCAAUAUUACGAUCU
self-splicing fitness (ln) (30 °C): -0.663 ± 0.12 | self-splicing fitness (ln) (37 °C): -0.195 ± 0.18

GUUUAGCAAUAUUACGCUCA
self-splicing fitness (ln) (30 °C): 0.0718 ± 0.14 | self-splicing fitness (ln) (37 °C): 0.432 ± 0.2

GUUUAGCAAUAUUACGCUGG
self-splicing fitness (ln) (30 °C): -2.55 ± 0.25 | self-splicing fitness (ln) (37 °C): -0.944 ± 0.26

GUUUAGCAAUAUUACGGAAC
self-splicing fitness (ln) (30 °C): -2.74 ± 0.39

GUUUAGCAAUAUUACGGAUA
self-splicing fitness (ln) (30 °C): -2.77 ± 0.27 | self-splicing fitness (ln) (37 °C): -1.37 ± 0.19

GUUUAGCAAUAUUACGGAUC
self-splicing fitness (ln) (30 °C): -1.18 ± 0.11 | self-splicing fitness (ln) (37 °C): 0.125 ± 0.12

GUUUAGCAAUAUUACGGCCG
self-splicing fitness (ln) (30 °C): -2.4 ± 0.18 | self-splicing fitness (ln) (37 °C): -0.926 ± 0.21

GUUUAGCAAUAUUACGGCGC
self-splicing fitness (ln) (30 °C): 0.141 ± 0.16 | self-splicing fitness (ln) (37 °C): 0.337 ± 0.17

GUUUAGCAAUAUUACGGCGU
self-splicing fitness (ln) (30 °C): -0.507 ± 0.094 | self-splicing fitness (ln) (37 °C): -0.0237 ± 0.12

GUUUAGCAAUAUUACGGUAA
self-splicing fitness (ln) (30 °C): -1.65 ± 0.18 | self-splicing fitness (ln) (37 °C): -1.24 ± 0.14

GUUUAGCAAUAUUACGGUCC
self-splicing fitness (ln) (30 °C): -0.925 ± 0.11 | self-splicing fitness (ln) (37 °C): -0.109 ± 0.12

GUUUAGCAAUAUUACGGUUG
self-splicing fitness (ln) (30 °C): -3.13 ± 0.36 | self-splicing fitness (ln) (37 °C): -1.47 ± 0.28

GUUUAGCAAUAUUACGUAAA
self-splicing fitness (ln) (30 °C): -2.64 ± 0.18 | self-splicing fitness (ln) (37 °C): -0.672 ± 0.18

GUUUAGCAAUAUUACGUACC
self-splicing fitness (ln) (30 °C): -1.45 ± 0.48
